Tests used:
SEPTIN6 (human) [1] = target: SEPTIN6 (human) (UniProt Q14141); test: HaloLink pulldown from unperturbed A375 cells, LC-MS/MS
SEPTIN7 (human) [2] = target: SEPTIN7 (human) (UniProt Q16181); test: as above
SEPTIN11 (human) [3] = target: SEPTIN11 (human) (UniProt Q9NVA2); test: as above
SEPTIN2 (human) [4] = target: SEPTIN2 (human) (UniProt Q15019); test: as above
SEPTIN8 (human) [5] = target: SEPTIN8 (human) (UniProt Q92599); test: as above
SEPTIN9 (human) [6] = target: SEPTIN9 (human) (UniProt Q9UHD8); test: as above
Sequence of SEPTIN9 (human) (Q9UHD8 whole entry): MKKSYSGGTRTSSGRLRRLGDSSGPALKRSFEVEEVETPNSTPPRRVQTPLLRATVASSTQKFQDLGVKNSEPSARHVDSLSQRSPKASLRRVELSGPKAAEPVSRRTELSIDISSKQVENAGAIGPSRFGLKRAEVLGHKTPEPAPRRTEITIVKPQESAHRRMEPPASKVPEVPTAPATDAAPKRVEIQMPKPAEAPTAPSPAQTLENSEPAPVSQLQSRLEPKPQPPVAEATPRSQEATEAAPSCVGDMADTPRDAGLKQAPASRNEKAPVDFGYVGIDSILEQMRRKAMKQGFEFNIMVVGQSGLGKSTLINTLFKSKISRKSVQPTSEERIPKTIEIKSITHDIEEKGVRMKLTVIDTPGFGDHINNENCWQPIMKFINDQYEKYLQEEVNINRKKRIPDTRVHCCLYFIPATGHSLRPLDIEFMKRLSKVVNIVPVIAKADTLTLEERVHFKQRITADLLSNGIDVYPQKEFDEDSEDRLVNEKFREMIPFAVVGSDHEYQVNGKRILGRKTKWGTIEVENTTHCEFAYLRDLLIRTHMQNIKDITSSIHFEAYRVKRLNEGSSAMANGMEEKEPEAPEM

SEPTIN10 (human) [7] = target: SEPTIN10 (human) (UniProt Q9P0V9); test: as above
Sequence of SEPTIN10 (human) (Q9P0V9 whole entry): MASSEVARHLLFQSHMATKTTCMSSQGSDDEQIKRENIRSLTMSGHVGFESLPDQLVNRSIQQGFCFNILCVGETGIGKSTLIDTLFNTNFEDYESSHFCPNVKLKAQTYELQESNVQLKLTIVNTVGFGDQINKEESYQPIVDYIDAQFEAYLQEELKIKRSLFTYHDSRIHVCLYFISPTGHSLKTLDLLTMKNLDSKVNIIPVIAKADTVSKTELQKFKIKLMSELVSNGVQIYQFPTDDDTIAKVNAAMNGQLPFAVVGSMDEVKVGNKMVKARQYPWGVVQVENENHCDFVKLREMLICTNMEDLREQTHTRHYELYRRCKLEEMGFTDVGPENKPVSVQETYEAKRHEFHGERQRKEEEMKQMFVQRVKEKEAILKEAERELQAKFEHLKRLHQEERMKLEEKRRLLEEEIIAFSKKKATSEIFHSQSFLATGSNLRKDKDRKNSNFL

SEPTIN6 (human) [8] = target: SEPTIN6 (human) (UniProt Q14141); test: HaloLink pulldown from MV3 cells, LC-MS/MS
SEPTIN7 (human) [9] = target: SEPTIN7 (human) (UniProt Q16181); test: HaloLink pulldown from MV3 cells, LC-MS/MS
SEPTIN11 (human) [10] = target: SEPTIN11 (human) (UniProt Q9NVA2); test: HaloLink pulldown from MV3 cells, LC-MS/MS
SEPTIN2 (human) [11] = target: SEPTIN2 (human) (UniProt Q15019); test: HaloLink pulldown from MV3 cells, LC-MS/MS
SEPTIN8 (human) [12] = target: SEPTIN8 (human) (UniProt Q92599); test: HaloLink pulldown from MV3 cells, LC-MS/MS
SEPTIN9 (human) [13] = target: SEPTIN9 (human) (UniProt Q9UHD8); test: HaloLink pulldown from MV3 cells, LC-MS/MS
SEPTIN10 (human) [14] = target: SEPTIN10 (human) (UniProt Q9P0V9); test: HaloLink pulldown from MV3 cells, LC-MS/MS

Sequence of SEPTIN7 (human) (Q16181 2-437 limits assumed): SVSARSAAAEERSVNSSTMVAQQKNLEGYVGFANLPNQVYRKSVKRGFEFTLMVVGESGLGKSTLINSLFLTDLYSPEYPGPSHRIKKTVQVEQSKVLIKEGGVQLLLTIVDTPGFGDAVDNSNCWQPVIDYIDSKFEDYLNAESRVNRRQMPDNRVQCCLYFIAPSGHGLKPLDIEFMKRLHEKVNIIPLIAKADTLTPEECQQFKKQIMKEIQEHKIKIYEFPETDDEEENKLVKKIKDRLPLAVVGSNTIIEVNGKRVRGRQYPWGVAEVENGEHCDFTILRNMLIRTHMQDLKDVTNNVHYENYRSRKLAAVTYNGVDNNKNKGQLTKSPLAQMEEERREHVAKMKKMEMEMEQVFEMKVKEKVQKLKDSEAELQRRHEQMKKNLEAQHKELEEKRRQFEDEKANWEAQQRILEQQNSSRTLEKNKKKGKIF
Sequence of SEPTIN8 (human) (Q92599 2-483 limits assumed): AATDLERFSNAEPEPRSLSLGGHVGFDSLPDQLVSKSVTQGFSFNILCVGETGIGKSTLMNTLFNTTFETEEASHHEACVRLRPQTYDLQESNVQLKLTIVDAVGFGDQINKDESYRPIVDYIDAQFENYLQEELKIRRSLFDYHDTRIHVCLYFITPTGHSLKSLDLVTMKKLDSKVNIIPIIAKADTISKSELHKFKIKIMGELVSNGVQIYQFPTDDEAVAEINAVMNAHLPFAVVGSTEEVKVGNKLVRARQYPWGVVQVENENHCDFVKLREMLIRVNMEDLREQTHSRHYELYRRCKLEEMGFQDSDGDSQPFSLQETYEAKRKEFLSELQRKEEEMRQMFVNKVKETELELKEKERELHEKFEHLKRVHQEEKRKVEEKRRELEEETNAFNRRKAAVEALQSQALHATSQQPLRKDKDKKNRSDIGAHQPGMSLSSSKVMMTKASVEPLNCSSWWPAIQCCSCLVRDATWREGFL
Sequence of SEPTIN2 (human) (Q15019 whole entry): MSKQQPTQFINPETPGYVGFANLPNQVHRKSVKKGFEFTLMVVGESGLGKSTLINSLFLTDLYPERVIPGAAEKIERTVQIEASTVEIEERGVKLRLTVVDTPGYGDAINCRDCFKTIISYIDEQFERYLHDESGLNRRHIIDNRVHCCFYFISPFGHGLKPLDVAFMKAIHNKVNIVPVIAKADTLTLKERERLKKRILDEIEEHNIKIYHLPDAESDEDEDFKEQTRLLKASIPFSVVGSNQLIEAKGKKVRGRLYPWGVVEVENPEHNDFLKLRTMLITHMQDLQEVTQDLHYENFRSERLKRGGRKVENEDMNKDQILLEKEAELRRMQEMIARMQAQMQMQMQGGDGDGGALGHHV
Sequence of SEPTIN11 (human) (Q9NVA2 2-429 limits assumed): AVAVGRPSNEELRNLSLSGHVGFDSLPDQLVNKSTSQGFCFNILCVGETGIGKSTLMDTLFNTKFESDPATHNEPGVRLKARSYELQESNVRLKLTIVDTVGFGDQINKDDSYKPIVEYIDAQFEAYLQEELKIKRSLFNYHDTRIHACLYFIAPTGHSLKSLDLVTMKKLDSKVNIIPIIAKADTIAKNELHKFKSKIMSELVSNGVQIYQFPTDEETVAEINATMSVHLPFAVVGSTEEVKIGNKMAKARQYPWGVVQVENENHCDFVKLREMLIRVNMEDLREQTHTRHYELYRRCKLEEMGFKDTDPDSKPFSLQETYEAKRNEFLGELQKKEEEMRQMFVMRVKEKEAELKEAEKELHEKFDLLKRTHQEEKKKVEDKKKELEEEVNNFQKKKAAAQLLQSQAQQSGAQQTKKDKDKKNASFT
Sequence of SEPTIN6 (human) (Q14141 2-434 limits assumed): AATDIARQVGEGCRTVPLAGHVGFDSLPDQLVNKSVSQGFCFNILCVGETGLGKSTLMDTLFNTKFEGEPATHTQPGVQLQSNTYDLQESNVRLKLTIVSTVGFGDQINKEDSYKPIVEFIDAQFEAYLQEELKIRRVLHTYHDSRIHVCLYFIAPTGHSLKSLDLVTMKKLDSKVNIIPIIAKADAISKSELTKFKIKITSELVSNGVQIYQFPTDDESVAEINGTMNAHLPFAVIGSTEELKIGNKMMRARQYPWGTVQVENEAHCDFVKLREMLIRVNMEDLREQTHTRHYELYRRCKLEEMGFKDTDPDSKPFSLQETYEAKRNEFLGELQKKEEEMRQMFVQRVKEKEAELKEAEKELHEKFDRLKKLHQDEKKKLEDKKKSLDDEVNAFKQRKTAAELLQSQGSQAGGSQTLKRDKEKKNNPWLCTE

For “mouse SEPT6-HALO (from UniProt Q9R1T4 2-434)”, the % of total protein abundance (SEPTIN6 (human) [1]) was 1.67%, the % of total septin abundance (SEPTIN6 (human) [1]) was 23.8% and the fold change between lysate and pulldown (% of total protein abundance) (SEPTIN6 (human) [1]) was 55.7 fold. It also gave a fold change between lysate and pulldown (% of total septin abundance) (SEPTIN6 (human) [1]) of -1.33 fold, a % of total protein abundance (SEPTIN7 (human) [2]) of 1.48% and a % of total septin abundance (SEPTIN7 (human) [2]) of 21.1%. For the same substance, the fold change between lysate and pulldown (% of total protein abundance) (SEPTIN7 (human) [2]) was 74 fold, the fold change between lysate and pulldown (% of total septin abundance) (SEPTIN7 (human) [2]) was 1.35 fold and the % of total protein abundance (SEPTIN11 (human) [3]) was < 0.01%. It also gave a % of total septin abundance (SEPTIN11 (human) [3]) of 0.12%, a fold change between lysate and pulldown (% of total septin abundance) (SEPTIN11 (human) [3]) of -44.7 fold and a % of total protein abundance (SEPTIN2 (human) [4]) of 1.81%. The % of total septin abundance (SEPTIN2 (human) [4]) was 25.7%, the fold change between lysate and pulldown (% of total protein abundance) (SEPTIN2 (human) [4]) was 60.3 fold and the fold change between lysate and pulldown (% of total septin abundance) (SEPTIN2 (human) [4]) was -1.03 fold. For the same substance, the % of total protein abundance (SEPTIN8 (human) [5]) was < 0.01%, the % of total septin abundance (SEPTIN8 (human) [5]) was 0.02% and the % of total protein abundance (SEPTIN9 (human) [6]) was 1.55%. The % of total septin abundance (SEPTIN9 (human) [6]) was 22.1%, the fold change between lysate and pulldown (% of total protein abundance) (SEPTIN9 (human) [6]) was 77.5 fold and the fold change between lysate and pulldown (% of total septin abundance) (SEPTIN9 (human) [6]) was 1.62 fold. The % of total protein abundance (SEPTIN10 (human) [7]) was 0.51%, the % of total septin abundance (SEPTIN10 (human) [7]) was 7.23% and the fold change between lysate and pulldown (% of total septin abundance) (SEPTIN10 (human) [7]) was 3.77 fold. The % of total protein abundance (SEPTIN6 (human) [8]) was 1.03%, the % of total septin abundance (SEPTIN6 (human) [8]) was 12.8% and the fold change between lysate and pulldown (% of total protein abundance) (SEPTIN6 (human) [8]) was 11.4 fold. It also gave a fold change between lysate and pulldown (% of total septin abundance) (SEPTIN6 (human) [8]) of -3.2 fold, a % of total protein abundance (SEPTIN7 (human) [9]) of 2.41% and a % of total septin abundance (SEPTIN7 (human) [9]) of 29.9%. It also gave a fold change between lysate and pulldown (% of total protein abundance) (SEPTIN7 (human) [9]) of 120 fold, a fold change between lysate and pulldown (% of total septin abundance) (SEPTIN7 (human) [9]) of 3.39 fold and a % of total protein abundance (SEPTIN11 (human) [10]) of 0.08%. The % of total septin abundance (SEPTIN11 (human) [10]) was 0.94%, the % of total protein abundance (SEPTIN2 (human) [11]) was 2.43% and the % of total septin abundance (SEPTIN2 (human) [11]) was 30.1%. The fold change between lysate and pulldown (% of total protein abundance) (SEPTIN2 (human) [11]) was 60.8 fold, the fold change between lysate and pulldown (% of total septin abundance) (SEPTIN2 (human) [11]) was 1.5 fold and the % of total protein abundance (SEPTIN8 (human) [12]) was < 0.01%. For the same substance, the % of total septin abundance (SEPTIN8 (human) [12]) was 0.09%, the fold change between lysate and pulldown (% of total septin abundance) (SEPTIN8 (human) [12]) was -3.44 fold and the % of total protein abundance (SEPTIN9 (human) [13]) was 1.85%. It also gave a % of total septin abundance (SEPTIN9 (human) [13]) of 23%, a fold change between lysate and pulldown (% of total protein abundance) (SEPTIN9 (human) [13]) of 61.7 fold and a fold change between lysate and pulldown (% of total septin abundance) (SEPTIN9 (human) [13]) of 1.78 fold. For the same substance, the % of total protein abundance (SEPTIN10 (human) [14]) was 0.28%, the % of total septin abundance (SEPTIN10 (human) [14]) was 3.19% and the fold change between lysate and pulldown (% of total protein abundance) (SEPTIN10 (human) [14]) was 7 fold. It also gave a fold change between lysate and pulldown (% of total septin abundance) (SEPTIN10 (human) [14]) of -5.32 fold.
